Values quoted from earlier work in PMC7226360.

Molecular target: NEDD8 (Homo sapiens) (UniProt Q15843)
Sequence (Q15843 1-76): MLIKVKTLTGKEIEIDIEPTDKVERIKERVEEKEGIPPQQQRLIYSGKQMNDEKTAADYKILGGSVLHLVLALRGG

Sequence of KHNYN 627-678 (O15037 627-678): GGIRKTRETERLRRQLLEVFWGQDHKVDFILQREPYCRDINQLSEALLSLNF

- Kd: 24 µM
Substance: KHNYN 627-678 (from UniProt O15037)
